Assay results from patent US20220356228A1.
Positions count from the first letter of the chain named.

B1: 6H7 (antibody, V domains shown)
VH: QVQLVESGGGLVKPGGSLRLSCAGSGFTFSDHYMSWIRQAPGKGLEWVSYISTSGRTIFYVDSVKGRFTISRDNAKNSLYLQMNSLRAEDMAVYYCASDYYDNVGWNYWGQGALVIVSS
VL: DVVLTQSPLSLPVTLGQPASISCRSSQSLVYSDGNTYLNWFQQRPGQSPRRLIYKVSDRDFGVPDRFSGSGSGTDFTLKISRVEAEDVGIYYCMQGTHWPRTFGQGTKVEIK
B2: 8C3 (antibody, V domains shown)
VH: B1 VH with G24A, F59H, V61A, N107D, A113T, I116T
VL: B1 VL with L4M, V30L, F61S, E86D, I90V, T97A
B3: 5G5 (antibody, V domains shown)
VH: LVQLVESGGGLVKPGGSLRLSCTASGITFSDLYMSWIRQSPGKGLEWISYISTSGRTIYYTDSVKGRFTISRDNAKNSLFLQMNRLRADDTAVYYCAGDYYDNSGWDYWGRGTLVTVSS
VL: B1 VL with D1N, L4M, T14A, S26G, F61S
B4: 6G5 (antibody, V domains shown)
VH: QVQLVQSGAEVKKPGASVKVSCKASGYTFTNYDIHWVRQAAGQGLEWMGWTNPNSGNSDYAQKFQGRVSMTRDTSMRTMYMELNSLRSEDTAVYFCARKIWVGTTIFDYWGQGTLVTVSS
VL: DIQMTQSPSSLSASVGDRVTIACRASQSIYRFLSWYQQKPGTAPKLLIFAVSSLQSGVPSRFSGSGSGTDFTLTISSLHPEDFAIYYCQQSDSPPLTFGGGTKVGIK

target: JCV major capsid protein VP1, wild type (John Cunningham virus (JCV)) (UniProt P03089); assay: cell-based or functional assay
Sequence (P03089 whole entry): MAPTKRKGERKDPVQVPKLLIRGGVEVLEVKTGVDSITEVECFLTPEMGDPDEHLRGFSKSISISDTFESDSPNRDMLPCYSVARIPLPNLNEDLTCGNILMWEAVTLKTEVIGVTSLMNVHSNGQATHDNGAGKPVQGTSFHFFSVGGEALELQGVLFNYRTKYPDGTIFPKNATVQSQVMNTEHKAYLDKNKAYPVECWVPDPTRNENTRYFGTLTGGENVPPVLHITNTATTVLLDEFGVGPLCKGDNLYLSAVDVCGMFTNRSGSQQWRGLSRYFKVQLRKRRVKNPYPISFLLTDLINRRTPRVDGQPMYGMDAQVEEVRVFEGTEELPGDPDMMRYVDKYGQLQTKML

Binder | Neutralization of WT JCV: EC50 [pM]
B1 | 0.5
B2 | 14
B3 | 0.4
B4 | 3.1
